Source: PMC5555201, “Parallel homodimer structures of the extracellular domains of the voltage-gated sodium channel β4 subunit explain its role in cell–cell adhesion” (The Journal of Biological Chemistry, 2017)

B1: human β4 subunit extracellular domain fragment (residues 30–152) (domain or fragment, UniProt Q8IWT1-1 30-152, looked up)
chain: SLEVSVGKATDIYAVNGTEILLPCTFSSCFGFEDLHFRWTYNSSDAFKILIEGTVKNEKSDPKVTLKDDDRITLVGSTKEKMNNISIVLRDLEFSDTGKYTCHVKNPKENNLQHHATIFLQVV
notes: voltage-gated sodium channel β4 subunit, human, GenBank NP_777594, residues 30–152; all three Cys residues kept; His tag cleaved by tobacco etch virus protease; also called human β4ex; human β4 (hexagonal form); source: E. coli cell-free protein synthesis, purified (HisTrap, HiTrap Q, Superdex 75); not shown: His tag, N-terminal, cleaved
B2: mouse β4 subunit extracellular domain fragment (residues 30–160) with a C-terminal His6 tag (domain or fragment, UniProt Q7M729 30-160, looked up)
chain: SLEVSVGKATTIYAINGSSILLPCTFSSCYGFENLYFKWSYNNSETSRILIDGIVKNDKSDPKVRVKDDDRITLEGSTKEKTNNISILLSDLEFSDTGRYTCFVRNPKEKDLNNSATIFLQVVDKLEKVDN
notes: voltage-gated sodium channel β4 subunit, mouse, GenBank BK001031.1, residues 30–160 (numbering starts from the initiator methionine residue); all three Cys residues kept; Cloned into pGEX6P2; GST cleaved with PreScission protease; also called mouse β4ex; mouse β4 (cubic form); source: E. coli BL21DE3, purified (nickel-Sepharose, glutathione-Sepharose, Mono Q); not shown: His6, C-terminal, kept

Key:
[1] = target: the molecule itself; assay: SEC; HiLoad 16/60 Superdex 75, non-reducing conditions; second peak (65–75 ml) of the anion exchange chromatography; 20 mM Tris-HCl (pH 8.0), 150 mM NaCl, 10% glycerol
[2] = target: the molecule itself; assay: crystal structure; mouse β4ex, cubic crystal form, 3.1 Å; 2.7 M sodium malonate, 0.1 M Tris-HCl (pH 7.0), 0.5% Tween 20, 20 °C; two molecules in the asymmetric unit related by non-crystallographic 2-fold symmetry

Protein	stoichiometry N [1]	binding result [2]
B1	2	–
B2	–	binds
